From paper PMC6786531 come the findings set out here.

Assay [1] addresses Paclitaxel-stabilised microtubules containing 10% X-rhodamine-labelled and 10% biotin-labelled tubulin (porcine) (UniProt P02550).
Assay [2] deals with Paclitaxel-stabilised microtubules of unlabelled porcine brain tubulin (porcine) (UniProt P02550).
In assay [3] the target is P. falciparum kinesin-8X motor domain with C-terminal SNAPf tag, biotinylated (Pfkinesin-8X-MD-SNAP) (P. falciparum).
Assay [4] deals with P. berghei kinesin-8X motor domain with C-terminal SNAPf tag, biotinylated (Pbkinesin-8X-MD-SNAP) (P. berghei).

In assay [1], “P. berghei kinesin-8X motor domain (Pbkinesin-8X-MD) (domain or fragment)” came in with an MT depolymerization rate with AMPPNP (TIRF microscopy, 2.5 uM motor domain, 5 mM nucleotide, room temperature) of 1.8 nm/s and an MT depolymerization rate with ATP (TIRF microscopy, 2.5 uM motor domain, 5 mM nucleotide, room temperature) of 4.3 nm/s. In addition, in assay [2], the MT-stimulated ATPase activity, K1/2(MT) (enzyme-coupled assay, 250 nM motor domain, 0-6 uM paclitaxel-stabilised MTs, 37°C) amounted to 2.2 µM and the MT-stimulated ATPase activity, Vmax (enzyme-coupled assay, 37°C) worked out at 2.2 ATP/s.

In assay [1], “P. falciparum kinesin-8X motor domain (Pfkinesin-8X-MD) (domain or fragment)” came in with an MT depolymerization rate with AMPPNP (TIRF microscopy, 2.5 uM motor domain, 5 mM nucleotide, room temperature) of 0.3 nm/s and an MT depolymerization rate with ATP (TIRF microscopy, 2.5 uM motor domain, 5 mM nucleotide, room temperature) of 0.5 nm/s. For the same substance, in assay [2], the MT-stimulated ATPase activity, K1/2(MT) (enzyme-coupled assay, 250 nM motor domain, 0-6 uM paclitaxel-stabilised MTs, 26°C) stood at 1.3 µM and the MT-stimulated ATPase activity, Vmax (enzyme-coupled assay, 26°C) turned out to be 6.5 ATP/s.

Regarding “Paclitaxel-stabilised microtubules containing 10% X-rhodamine-labelled tubulin (from UniProt P02550 1-451) (complex)”, the MT gliding velocity on surface-held biotinylated motor domain (TIRF microscopy, 5 mM ATP, room temperature) is 3.7 nm/s in assay [3] and 17.8 nm/s in assay [4].
